We go through one substance from publication PMC7959301.

The target of the assay is SpyCatcher-fused ferritin protein (Streptococcus pyogenes | not stated). Nature of the assay: SDS-PAGE of the covalent SpyTag/SpyCatcher adduct.

6 × His-SpyTag-AE2F SOSIP.664 returned a percent of input conjugated of 80 to 90%.
